The NTF2 design screens of Basanta et al. (2020)

experiment: protease stability score; higher = more stable; yeast display proteolysis, trypsin and chymotrypsin;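 further: log10 excess protease needed over predicted unfolded state with 0 meaning unfolded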

First: DESMQKEVHDFLKAQMTNNEDQLRRQADPNARFVYGNKTLHGMDQAAKHLVKLYREATFRIESVSIDAQGDKADIKQTFIVDINGKPDRDTADIKIKFHNGTIKEVNIQVDEEKERKIRS
Second: DESNREVYQKLLNAQTKGDEETAKELADPNASVQIGDKQIHGMDQYVKQMTRDKRRARVRIRDVRVDVQGDNIRVSAHFQEDHNGKPDERTMTQSYKVENGKMKSASVHSLS
The protease stability score of the first is lower: -0.218 for the first, -0.124 for the second.

First: DESQAEALHEVLQAERTNDPKKVEEQMDPHVNIVIGDKTYHGRDRIREDVKRKIDEMRVHVESVRFDEQGDKARAEATLRYNHNGRPSSKKIVIQMKAENGQIKTMRVHDTK
Second: DESQAKEFVDNFKTNNREELQKQVDKDAKMIVGNKEYHGEEQVQDALRDLNEEVDHLTIKSVELKGNSVTIYFIIVINGTRMTVHVVAVFHNGRVKKEVWTATDEDDKRKIDQVVG
The protease stability score of the first is lower: -0.646 for the first, 0.281 for the second.

First: DESQHQSLAKNLVRIFEEGDEDDVRKLADKDARLEVGDHELRGREQVAKFYKRVRDRIDELEIRDVHVQGERVSVHVVVRYNGRHVDFKINIVAHNGRITRVRVDPDRFRQLHS
Second: DESQLELVKELLDVLQTGNPDEARQLVDKDVNIRIGDRVIHGREQLQSHVEKVKREQQVHVNITDMKVKGDKIKVVAQYKNHHNGQPSHNKMVLDAEVNGDKIHRMEYKSQS
The protease stability score of the first is higher: 1.64 for the first, -0.453 for the second.

First: DESQQKHLTRLLEDNDFDRLAELADKHVRVEYGDQSYQGRETFQEMQEKLKKRADHLTYRSIDNQGDKIKVDFVLNVNGKDVRLQFDFRFNNGHIKEMTITATSEENLHKFEEALS
Second: DESQVDEAKKMAKVWEDGDPDQLRRMADPNAKMHIGDKDIRGHTEATRWVRHLSEHMRQRLDSVRVDTEPNRAEAKIQLTVDVNGKPDRYTAHLNMVVDNGRVRKLEVRFDEEDKKRRQS
The protease stability score of the first is higher: -0.094 for the first, -0.139 for the second.

Compared with “DESRKAREYMDKFKEIMDTGDPDKLRNLVPPDVTMQYGDRSLKGREEFVEHLQELLERADHVDVTVVDVKQDGDQLHFEVRVTYEENGERREYTFVFVAIVQGDKVRVKEMREK”, “DESVENTVTEILEAEQQNNEEELRRLADPNAEVRVGEKTIHGMDEAVHQIAHELKQQRVEYSDMKISVNNGRARIDVEVEVEKNGRPHTSHYERTIEMHNGRMTHMEQRDDG” is lower in protease stability score: 0.065 for the first, -0.524 for the second.

Going from “DESVKERMKRILETGDWKKLVEMADEDASVKVGEKEFHGREQVSDFFKELQDQADTQEIKHVSVHGEHVVNTMVIRFNGKEVHLVLTVQLTNGKIHSASVKFTSEEHHKIMLRAIS” to “DESVLEMAERIIEAFNNGDPERAVNQADPNVKITVGDKSITGREDLRRELEKQLKEQEQHIQVLRVTDHNGQAQMDIRMTSEKNGNPDHRRATVQFHATNGKLQTMRVDQRG”, the protease stability score falls from 0.257 to -0.599.

First: DESVRRNFEDLLRAEETGDPDRVMDLVDPNARIQVGDKYLQGREQIDETMERHKSEIRFSIDRLSATDHNGVVDVTMSMKKNVNGKPKKFRAEVNVKAHNGKLKLLDMKIDG
Second: DESVTEQANKMLDNIEKNNPEKVREQVDPNAKLQIGDKTLSGREHVQKQVEREMKDISVTRDLKSVNVRNGRAVFDMTVDFDVNGKPIHAHQVMEVQATNGRIKSVTYKIDTEELRKIDK
The protease stability score of the first is higher: -0.284 for the first, -0.499 for the second.

Compared with “DETAARDVEELLTHVKTNNPENVVKLADPNAKAKIGDQTVKGREELTKQMTKELRHQRMSVEIKDYKVHGNKVVIDAEFTYNHNGRPQKKDVEIYVVFRGEKIEKFVWRTDG”, “DETAERLEHQLKSALETGDEESAKKQFDPNVKFQYGDKVIHGMENAIERIVKRLKELHVSVELKSMHVEGNNIQADLVATENHNGQPRTRRFTLHVTWRNGRIQEIRQQDTK” is higher in protease stability score: 0.627 for the first, 1.31 for the second.

Going from “DETAISVAKTMFEAMESNDPDEVRRQADPNATFVIGDKNYHGMETYAKEVKKRNDKIDVQLQDMDITDQGEDADIKQVAVFTHDGRPKKVVIHWDISVRNGRIKFVHADQRG” to “DETAKKHFEELMKVWKHGDFRRAQELLDPNVRVVIGDQQFHGREDVAKKIAEHLHRMEVEIKDYRVKNDGEKIHIEVDAVFERNGRPERRRYVAVYRVHNGRFKEMSQQEDK”, the protease stability score rises from -0.4 to 1.05.

Going from “DETAKKNVELYVQAFEDNDERKLNHMMDPNAHFRIGDRNVHGRDQVKDEVEKRRKEQSVKFKDVKVDVQGDKATIEIRWVVDKNGEPTEDVHKVDLKIHNGRAKYMQWDSVR” to “DETALRIAEDWFRALQNGNPERMQENVDPNARVQIGDKELHGREQIHELAQKIKEEMRIEVNITHVDVHGEHLRLEFDIRVDINGKPVTNHNTAEFNVENGSIKHISFDIDPRQLNKMQK”, the protease stability score rises from -0.07 to 0.746.

Going from “DETAMEVAERFLENINNGNPEEATKQFDPNARFIVGDKRLTGQEQVKSEIEDQKKHIDVNYDVKRVEIDGDKALLELDVQNEHNGRPRTDSAVITMEAHNGKITHMQRDHDG” to “DETAQDLVTTLIEAWKTNDPDSVANLMDPNATVKIGDKSVHGKKQLEEMLKKLRDEMTIDIKRVDVKVNNGDAKVNARATFTHNGKPDSRTMSAEVEWNGDKVKEFRVHWEQ”, the protease stability score rises from -0.594 to 1.

First: DETAQEQAKKLFQARQTNDPDKVNNLLDENARVNIGDTSVQGREDASKEVERQHRESHQSVELKEVKVDGDHVELHYVLTKQENGKPDSNKASMNVQIHNGKAQDVQIQTSK
Second: DETAQKVANQFFEALKNGDPDQVRRLLDKNATVRIGEWQVHGREQASKDVHQNKQHAEYDWRIRSVKVTGNKVDIDAEVTYQHNGEPSRRQMVVNVVVTNGKIQDIHVRDEQ
The protease stability score of the first is lower: -0.35 for the first, 1.43 for the second.

Going from “DETAQNLIKELNRAWNENNENQVAELMDPNAKLQIGNKVLTGRKQRMEEIRSQTHSMRLDYKYEDVKAKNGKVTANLRYVADVNGRPVDVTVSVKADVHNGVIVRLEVRLPPDVEEELKR” to “DETARDRLEELWRTMERNDPDKLTRQADKDVEVHVGDKELHGMKQVATTLAHEMREMDVEIEIREVNVQGNNVEVDMIFRAKVNGKPIHNKASFVVTFNNGKAESIELRVPPEFQKQKRK”, the protease stability score falls from 0.219 to -0.222.

First: DETARHRLEEMWTNIQRNNPSEVAKLADKDVRVRVGDKEIHGREQLNHHIKRFNDEIRMNVDHISIKVDGNEADIHIRAEFEVNGTPFEMTIDVKISVHNGKIKEIDRQVSEEEKRRLKK
Second: DETASRAAERYMKALQTGDPDEVVKQIDPNVHVRVGDKEVQGKEQFRKKQERDKKQARYHIKHVTFNVEGDKVRVDVIFRKHHNGQPRHDRMEQRMSVRGDKITHQENHKTG
The protease stability score of the first is higher: 0.806 for the first, 0.02 for the second.

First: DETATEAAQRMMDNWRTNSPEDYAKLADKNVEVRVGDKTYTGRDELRSRLQRKREEQHIDLRTYHFRVNGDEVTVRARYIENHNGRPQHKVVRFVFRLHNGRVKEIERHDDS
Second: DETAVEIARDFLQAITNNNPQEAERLADPNVRWTVGDKSYSGMNEFSKIIKDLNDRSRFEYTDVKLDVTNGRARIELRMSRTVNGKPQSFDMVMNVVVHNGRIKHVHVHNKQ
The protease stability score of the first is lower: 0.22 for the first, 1.4 for the second.

Going from “DETAVHAARRYLHAVTEGDPDKVNEQVDPNAKLTYGDKEVHGSSQVKEEVETQNRHSRIQYDSVTFDHQGDKVRADIDMKQDSNGRPKRRKMVVDFRAHNGKLQHVNAQDDN” to “DETAVKVIHKVVEAINTNNPKQVMKNMDKDVHITVGDKEYEGKEEFAKQVERDLREQRVDIDIKRLNVHNGKVHVKFTAQQQINGKPISYKATARAEVQNGKVQHMEIRVPEELQRKRES”, the protease stability score falls from -0.224 to -0.272.

First: DETAVRVFRKIEDAYQKGDPDKITNLLDENVEMHVGDKRVHGRETMAEHLKKQLDEIRQKIKSVTLHDKGDTIRIDVLMVEEHNGQPRESRYHVHAKIHNGKMKEREQTSVQ
Second: DETAVTVLTEIVKAQRQGDHNRFNELVDPNAKIRVGDKRVTGREQLTHEFHKNLKHMRVHQKVHDMKDHNGRVQATAQRRSNHNGKPKEVEVQFQATARNGRLTQMEMHSSG
The protease stability score of the first is higher: -0.095 for the first, -0.643 for the second.

Compared with “DETDKAHEFMRKMKRALDQNDPDKLMDLFDPNAKVKVGEKKIHGRERISNDLQRHAHNADHIHMEIQDMKVSGDKINITFRVTSVVNGNTRSNRVLIRARIDNGHIKAVDVQQK”, “DETDKAQKQFEHYERIAHTGDPDEMQRQADENARVEYGDKEVRGRKDVKKWAKDIKDTVDSVEFDIKSFEVQGDKITINVNIVYRSDGRQQSMEVNMVFDVRGDDIQIRSMKFR” is lower in protease stability score: 0.855 for the first, 0.434 for the second.

First: DETDLEKFATIVQQNNPHEFKKLLPEDAKMTYGDKTVHGREEIQRILENLVKDVDRLRIKHYKISGDKIEIDLVVNVNGRNIRFSLRAKMHNGQIKFFEIEVRDDDVKHELEKMLS
Second: DETDLERWARTFIEVFQTGDENRFRKMVDPNARLNVGEKNVHGKEEMAKAAKKLRDKVDHMHVRDLQINPPTIEIHIDFHHNGQKRSQVYYVEMHNGRVTEIHVQTS
The protease stability score of the first is lower: 0.069 for the first, 1.05 for the second.

Compared with “DETDLLRKLIHHLKTAVDEGDPDKYVKNFDPNAKIDVGDKQWHGHDEIRKKMEDLVRQADHVRLTIDHMQVQGDKFNIHATIKYDNNGEDVERKFVLTATKKGDKAKAEFVTEQ”, “DETDQVETLLKRFKEAVDHGDKHQARHLFRDDVRIKYGDKEIHGRDNLAHWIVDRARRADHVDFTIRQFDVRNGRVSVDVEVRYDVNGKHDHKRYTLRADLRNGRATAVTIEVR” is lower in protease stability score: 0.895 for the first, 0.344 for the second.

Compared with “DETDTAKDFAEELRTIFESNDFKRYQQLFDPNAKIHVGEKRLHGDRRVNNLIKEIFDRADHLHFDLREFEVKGEKVRIRYVEKQKINGKDETRDVVMVAVKQGDKMYITEVRHQ”, “DETEAKKNVEVVEQNDWDTFEDQVDENAKMKVGDKEIHGREQFSEFADNMKKNADHVEVKSVDRRGDEINIEMVVSVNGKRVTYVVQFVVNNGKIHDVQFDARSEDDERFLKEVQS” is lower in protease stability score: 1.13 for the first, 0.619 for the second.

Compared with “DETEDKKAQQLAKAINDGDEHDVRKMMDKDVKVDVGDKQLHGREQAAKWMSRHRREQRRTIEVTDVKMHGEKAELDANLRVDVNGQPRTHRVRIIVSITNGRLQHLEIHMDPRFEQSVQS”, “DETEEVQKLVHRWRQAMEDGNPDDLRKNMDEDAEMRYGDKSWHGRENIAQNLHKERQRADSISITIEDMDHENGKAVVHLNITFTVNGRKETKRYDLDVEVNGDKLKIKQIQQE” is higher in protease stability score: -0.25 for the first, 0.247 for the second.

Compared with “DETEHAKRLAEEFVRNVETGDESRLVELADPNAKFEVGDTTVHGMEDYAHNMHKRRNEADHFDFKVKSVHVSNGNIRVDIDYRVNHNGKVEKQRMVIYMTKHGDKYRIKKIEVS”, “DETEIRLFHQFLRAIETNDEERAQQLADEDARYRYGNKEIDGMTQFQEDMDDKHKEARYSYSIDSVHDEPNRVVVEARAMVKINGKPTTYQVELHAHFHNGRMKKFTASVPEETLQSIRS” is higher in protease stability score: -0.082 for the first, 0.054 for the second.

Going from “DETEKADQMVHDLEEAIKTGDPDEISNQADPNVSFHYGDKTFHGREKLAEWFLELQKRVDHMHLDIKDIEVQGDKATITMQMVLDKNGDDERKDIRVEAQYHNGRLTISFAEAR” to “DETEKAKRFFDEWLKALHRGDPDEVKKLADPNVRFEVGDKEIHGRSNMAKHVTDLRKRADSFSASIDSIDIKGEKVVIDAKLTYNHNGRKTHNKVEFDAKVHNGKIKLKEIIVR”, the protease stability score falls from 2.15 to -0.257.

Going from “DETEKAKTFMDELRKVLQTGDEEQISRNMDPNARLNVGDKTIHGRERLAKEMSDEVKRADHIDIKVKSISVHNGKVRVDFFFTLEYNGQHRRTRRIMHADISDGQIKIKQIHDN” to “DETELRKMQEVQEHNDPDEWKKQADKDVRLKVGNKRLHGREDVHRYLKTHRDQADHIRYKSFDFDGDKADITFHAVVNGRTFEANQEIRIHNGRIQEVNIHYTDDQVQRELEELFG”, the protease stability score falls from 1.4 to -0.195.
